In patent publication CN116554335A:

Molecular target: T1, 合成的G6PC多肽 (synthetic G6PC immunogen peptide, sequence range 80-120aa) (human) (UniProt P35575)
T1 sequence (peptide, looked up): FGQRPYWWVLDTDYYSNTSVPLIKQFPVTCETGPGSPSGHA
Experiment: indirect ELISA, serial two-fold dilution of the antibody; coating antigen not stated (taken to be the immunogen peptide)

抗体效价 (ELISA titer): 1.2e+07
B1: 兔单克隆抗体OTIR5G10 (rabbit anti-human glucose-6-phosphatase (G6PC) monoclonal antibody OTIR5G10) (antibody, V domains shown)
VH: QSVEESGGRLVTPGTPLTLTCTVSGADLSTYGVIWVRQAPGKGLEYIAAIVSGGRPYYRHWAKGRFTISKTSSTTVELKITSPTTEDTATYFCVLGNLWGQGTLVTVSS
VL: AQVLTQTASPVSAAVGGTVTINCQASQSVYSNNYLSWFQQKPGQPPKQLIYRASKLASGVSSRFKGSGSGTQFTLTISDVQCDDAATYYCLGGYDCSSADFGGGTEVVVK
